Assay [1] has as its target T1, human sodium-dependent phosphate transporter 2B (NaPi2b) (human, UniProt O95436 1-690).
T1 sequence: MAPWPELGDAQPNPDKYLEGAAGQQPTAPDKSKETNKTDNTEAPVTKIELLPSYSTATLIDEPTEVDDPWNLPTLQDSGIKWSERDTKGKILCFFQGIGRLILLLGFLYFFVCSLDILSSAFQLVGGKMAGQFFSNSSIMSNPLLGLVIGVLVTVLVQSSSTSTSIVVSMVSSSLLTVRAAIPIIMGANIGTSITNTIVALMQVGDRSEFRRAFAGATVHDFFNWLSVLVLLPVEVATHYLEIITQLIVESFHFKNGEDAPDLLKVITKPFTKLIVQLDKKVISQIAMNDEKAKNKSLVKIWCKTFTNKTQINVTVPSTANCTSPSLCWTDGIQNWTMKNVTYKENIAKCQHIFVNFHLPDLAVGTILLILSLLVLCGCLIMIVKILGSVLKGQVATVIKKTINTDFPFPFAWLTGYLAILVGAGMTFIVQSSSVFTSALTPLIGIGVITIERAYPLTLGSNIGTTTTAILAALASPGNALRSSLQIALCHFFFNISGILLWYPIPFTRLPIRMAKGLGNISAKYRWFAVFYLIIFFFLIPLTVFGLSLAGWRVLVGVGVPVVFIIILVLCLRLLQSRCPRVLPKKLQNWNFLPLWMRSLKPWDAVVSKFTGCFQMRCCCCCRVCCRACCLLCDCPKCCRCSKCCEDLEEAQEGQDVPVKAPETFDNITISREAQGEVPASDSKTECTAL
Briefly: cell-based or functional assay.

Another assay concerns the target T2, cynomolgus monkey NaPi2b (cynomolgus monkey, UniProt O95436 1-690 (human entry)).
T2 construct: also called Cyno NaPi2b; Cy NaPi2b
T2 chain: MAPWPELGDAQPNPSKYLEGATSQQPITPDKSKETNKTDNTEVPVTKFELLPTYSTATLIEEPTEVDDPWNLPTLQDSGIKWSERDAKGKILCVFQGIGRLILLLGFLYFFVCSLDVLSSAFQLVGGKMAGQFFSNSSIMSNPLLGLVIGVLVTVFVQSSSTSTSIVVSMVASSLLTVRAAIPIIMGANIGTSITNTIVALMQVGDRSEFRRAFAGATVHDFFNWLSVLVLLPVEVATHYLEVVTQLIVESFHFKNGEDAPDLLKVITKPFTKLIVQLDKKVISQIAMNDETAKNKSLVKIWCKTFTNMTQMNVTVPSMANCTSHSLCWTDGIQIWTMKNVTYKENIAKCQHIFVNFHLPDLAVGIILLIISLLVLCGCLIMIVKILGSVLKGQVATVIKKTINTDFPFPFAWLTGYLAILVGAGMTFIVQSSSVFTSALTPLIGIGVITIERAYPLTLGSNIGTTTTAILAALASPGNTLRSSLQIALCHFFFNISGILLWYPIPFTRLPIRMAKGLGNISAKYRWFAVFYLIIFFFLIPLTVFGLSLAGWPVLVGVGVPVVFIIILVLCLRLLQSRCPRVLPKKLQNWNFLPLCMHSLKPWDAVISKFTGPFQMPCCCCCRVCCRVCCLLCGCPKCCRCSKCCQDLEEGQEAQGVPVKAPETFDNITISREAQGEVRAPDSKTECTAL
The assay is described as follows: flow cytometry on HEK293-6e cells transiently transfected with cynomolgus NaPi2b, antibody 18-24 h at 4 C, anti-human IgG Fc AF647.

In the next assay the target is T3, mouse NaPi2b (mouse, UniProt Q9DBP0 1-697).
T3 construct: also called Ms NaPi2b; CL #13476
T3 sequence: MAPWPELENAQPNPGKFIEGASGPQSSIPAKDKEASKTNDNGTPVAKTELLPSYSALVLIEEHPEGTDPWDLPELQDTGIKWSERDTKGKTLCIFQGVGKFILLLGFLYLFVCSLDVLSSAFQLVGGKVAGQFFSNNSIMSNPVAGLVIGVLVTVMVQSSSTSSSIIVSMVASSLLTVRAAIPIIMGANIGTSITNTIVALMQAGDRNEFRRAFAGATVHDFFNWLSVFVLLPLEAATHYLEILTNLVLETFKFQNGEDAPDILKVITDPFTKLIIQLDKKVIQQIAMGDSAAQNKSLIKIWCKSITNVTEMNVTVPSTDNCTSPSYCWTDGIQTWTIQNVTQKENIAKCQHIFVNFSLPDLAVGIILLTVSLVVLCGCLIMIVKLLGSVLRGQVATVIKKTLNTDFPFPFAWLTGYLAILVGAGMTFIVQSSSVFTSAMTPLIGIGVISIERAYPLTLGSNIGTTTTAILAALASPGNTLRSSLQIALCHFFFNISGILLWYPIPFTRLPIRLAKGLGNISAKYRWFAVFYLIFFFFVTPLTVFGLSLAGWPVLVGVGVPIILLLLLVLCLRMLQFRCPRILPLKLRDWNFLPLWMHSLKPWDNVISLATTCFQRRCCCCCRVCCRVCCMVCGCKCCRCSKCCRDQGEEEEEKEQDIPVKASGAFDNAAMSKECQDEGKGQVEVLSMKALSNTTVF
The assay is described as follows: flow cytometry, HEK293-6e cells transfected with mouse NaPi2b; apparent Kd above the highest concentration tested.

Assay [2] addresses T4, Construct 6 (NaPi2b del 317-333) (human, UniProt O95436 1-690).
T4 construct: Deletion construct on HEK293-6e cells; also called CL_#29919
T4 sequence: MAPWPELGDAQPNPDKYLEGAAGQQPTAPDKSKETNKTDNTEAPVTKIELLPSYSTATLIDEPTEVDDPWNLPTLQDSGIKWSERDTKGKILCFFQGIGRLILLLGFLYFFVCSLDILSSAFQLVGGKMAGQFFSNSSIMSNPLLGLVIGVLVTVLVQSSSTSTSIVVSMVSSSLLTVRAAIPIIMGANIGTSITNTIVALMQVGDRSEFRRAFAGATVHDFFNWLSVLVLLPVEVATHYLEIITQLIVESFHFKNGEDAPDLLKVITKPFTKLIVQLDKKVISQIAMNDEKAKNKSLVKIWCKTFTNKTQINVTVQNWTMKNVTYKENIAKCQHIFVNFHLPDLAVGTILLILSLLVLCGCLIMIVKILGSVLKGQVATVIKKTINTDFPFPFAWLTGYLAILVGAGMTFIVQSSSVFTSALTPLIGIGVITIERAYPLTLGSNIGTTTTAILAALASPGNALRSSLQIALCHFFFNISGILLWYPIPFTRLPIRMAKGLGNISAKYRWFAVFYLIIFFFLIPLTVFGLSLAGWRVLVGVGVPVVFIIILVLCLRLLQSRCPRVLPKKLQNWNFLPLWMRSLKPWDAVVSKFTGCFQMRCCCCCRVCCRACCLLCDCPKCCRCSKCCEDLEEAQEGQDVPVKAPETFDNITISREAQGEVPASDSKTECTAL
The assay is described as follows: flow cytometry, HEK293-6e cells transfected with Construct 6. A general note: Flow cytometry measures light scatter and fluorescence of single cells or particles in a stream.
Experimental: Following transfection, cells were seeded at 50,000 cells/well in conical-bottom 96-well plates and treated with a serial dilution of test antibody for 24 hours at 4° C. to prevent internalization. Cells were treated with final concentrations of all humanized antibodies of 200, 20, or 2 nM. Cells were treated with final concentrations of the reference anti-NaPi2a rabbit antibody of 50, 5, or 0.5 nM. […] Following incubation and washing, fluorescence was detected by flow cytometry on a BD LSRFortessa™ Cell Analyzer (BD Biosciences, Franklin Lake, NJ) with 1,000 minimum events collected per well. […] Background-subtracted AF647 Mean Fluorescence Intensity (MFI) values were calculated by subtracting the average MFI of three technical replicates of unstained (no primary antibody) cells.

B1: v22277 (palivizumab, anti-RSV negative control, heterodimeric Fc) (antibody, human IgG1, kappa)
heavy 1: GQVTLRESGPALVKPTQTLTLTCTFSGFSLSTSGMSVGWIRQPPGKALEWLADIWWDDKKDYNPSLKSRLTISKDTSKNQVVLKVTNMDPADTATYYCARSMITNWYFDVWGAGTTVTVSSASTKGPSVFPLAPSSKSTSGGTAALGCLVKDYFPEPVTVSWNSGALTSGVHTFPAVLQSSGLYSLSSVVTVPSSSLGTQTYICNVNHKPSNTKVDKKVEPKSCDKTHTCPPCPAPELLGGPSVFLFPPKPKDTLMISRTPEVTCVVVDVSHEDPEVKFNWYVDGVEVHNAKTKPREEQYNSTYRVVSVLTVLHQDWLNGKEYKCKVSNKALPAPIEKTISKAKGQPREPQVYVYPPSRDELTKNQVSLTCLVKGFYPSDIAVEWESNGQPENNYKTTPPVLDSDGSFALVSKLTVDKSRWQQGNVFSCSVMHEALHNHYTQKSLSLSPG
heavy 2: not shown
light: GDIQMTQSPSTLSASVGDRVTITCKSQLSVGYMHWYQQKPGKAPKLLIYDTSKLASGVPSRFSGSGSGTEFTLTISSLQPDDFATYYCFQGSGYPFTFGGGTKLEIKRTVAAPSVFIFPPSDEQLKSGTASVVCLLNNFYPREAKVQWKVDNALQSGNSQESVTEQDSKDSTYSLSSTLTLSKADYEKHKVYACEVTHQGLSSPVTKSFNRGEC
notes: also called neg control
Take B1: in assay [1], the “Internalized Fluorescence Fold-Over Palivizumab, HCC-78, 5 hrs, 10 nM” value is 1 fold; the “Internalized Fluorescence Fold-Over Palivizumab, HCC-78, 24 hrs, 10 nM” value came to 1 fold; the “Internalized Fluorescence Fold-Over Palivizumab, NCI-H441, 5 hrs, 10 nM” value was 1 fold; the “Internalized Fluorescence Fold-Over Palivizumab, NCI-H441, 24 hrs, 10 nM” value turned out to be 1 fold. In addition, the binding result with cynomolgus monkey NaPi2b was “no binding (tested: 200 nM)”.

B2: v18992 (MX35), reference anti-NaPi2b antibody (antibody, human IgG1, kappa)
heavy 1: GQVQLVQSGAEVVKPGASVKMSCKASGYTFTGYNIHWVKQAPGQGLEWIGAIYPGNGDTSYKQKFRGRATLTADTSTSTVYMELSSLRSEDSAVYYCARGETARATFAYWGQGTLVTVSSASTKGPSVFPLAPSSKSTSGGTAALGCLVKDYFPEPVTVSWNSGALTSGVHTFPAVLQSSGLYSLSSVVTVPSSSLGTQTYICNVNHKPSNTKVDKKVEPKSCDKTHTCPPCPAPELLGGPSVFLFPPKPKDTLMISRTPEVTCVVVDVSHEDPEVKFNWYVDGVEVHNAKTKPREEQYNSTYRVVSVLTVLHQDWLNGKEYKCKVSNKALPAPIEKTISKAKGQPREPQVYVYPPSRDELTKNQVSLTCLVKGFYPSDIAVEWESNGQPENNYKTTPPVLDSDGSFALVSKLTVDKSRWQQGNVFSCSVMHEALHNHYTQKSLSLSPG
heavy 2: not shown
light: GDIQMTQSPSSLSASVGDRVTITCSASQDIGNFLNWYQQKPGKTVKVLIYYTSSLYSGVPSRFSGSGSGTDYTLTISSLQPEDFATYYCQQYSKLPLTFGQGTKLELKRTVAAPSVFIFPPSDEQLKSGTASVVCLLNNFYPREAKVQWKVDNALQSGNSQESVTEQDSKDSTYSLSSTLTLSKADYEKHKVYACEVTHQGLSSPVTKSFNRGEC
Take B2: in the assay with mouse NaPi2b, the Kd is greater than 200 nM. In assay [2], the binding result was “no binding (tested: 200 nM)”.

Values taken from patent publication US20260232827A1 (Zymeworks, published 2026).
